Results published in patent publication US20180037644A1 (Pfizer, published 2018).
Substitutions are numbered along the chain they refer to. Read-outs that look alike come from different tables or passages of the source. Each block holds one binder with its values, some of them ahead of it.

Tests used:
[1] = biological target: T1, wild-type cynomolgus monkey IL-33 (cynomolgus monkey); assay: SPR, Experiment 2; reference: human IL-33 (WT + DTT)
T1 construct: Used reduced (DTT-treated); His6 in the entry; also called cyno IL-33 (WT + DTT); pfe cyno WT IL-33
T1 chain: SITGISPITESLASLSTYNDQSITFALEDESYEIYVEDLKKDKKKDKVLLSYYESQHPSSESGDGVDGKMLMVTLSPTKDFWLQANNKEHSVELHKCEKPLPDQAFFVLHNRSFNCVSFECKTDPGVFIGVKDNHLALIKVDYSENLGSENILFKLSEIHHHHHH
Protocol: (§1) Biacore kinetic assays were conducted at 37° C. at a collection rate of 1 Hz on a Biacore T200 instrument (GE Healthcare). Reduced and non-reduced wild-type human IL-33 and reduced wild-type cynomolgus monkey IL-33 were covalently coupled to a CM5 sensor chip (catalogue number BR100530, GE Healthcare) using an amine coupling kit (catalogue number BR100050, GE Healthcare) according to the manufacturer's protocol. Flow cell 1 was activated and blocked for use as a reference flow cell. […] The dilution and running buffer was HBS-EP+(10 mM HEPES pH 7.4, 0.15M NaCl, 3 mM EDTA, 0.05% P-20). Rate constants and affinities were determined by fitting the resulting sensorgram data to a 1:1 model in Biacore T200 Evaluation software version 1.0 (GE Healthcare). […] Kinetic properties of the bivalent IgG cannot be directly compared to those of monovalent Fab fragments and are not presented here.

[2] = biological target: T2, human IL-33 WT, reduced with DTT (human, UniProt O95760 112-270); assay: SPR, IL-33 amine-coupled to CM5, Fab in solution, 37 C, Experiment 2
T2 construct: Wild-type cysteines, FLAG tag in the entry; reduced with 3 mM DTT before use; also called huIL33 wt; hu IL-33 (WT + DTT)
T2 sequence: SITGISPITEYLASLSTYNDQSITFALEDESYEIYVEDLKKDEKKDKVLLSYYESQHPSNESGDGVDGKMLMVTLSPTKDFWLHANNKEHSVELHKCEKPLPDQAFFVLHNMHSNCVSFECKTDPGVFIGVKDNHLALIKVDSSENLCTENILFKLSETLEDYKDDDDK
Protocol: as §1

[3] = biological target: T1, wild-type cynomolgus monkey IL-33; assay: as above
Protocol: as §1

[4] = biological target: T3, human IL-33 (mm2) (human, UniProt O95760 112-270); assay: cell-based or functional assay
T3 chain: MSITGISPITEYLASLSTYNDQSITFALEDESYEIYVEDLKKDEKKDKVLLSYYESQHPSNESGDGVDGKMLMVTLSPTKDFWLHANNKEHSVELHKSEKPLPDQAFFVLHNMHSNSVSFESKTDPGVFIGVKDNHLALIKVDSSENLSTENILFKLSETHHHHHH

[5] = biological target: T4, cynomolgus monkey IL-33 (cys mut) (cynomolgus monkey); assay: cell-based or functional assay
T4 chain: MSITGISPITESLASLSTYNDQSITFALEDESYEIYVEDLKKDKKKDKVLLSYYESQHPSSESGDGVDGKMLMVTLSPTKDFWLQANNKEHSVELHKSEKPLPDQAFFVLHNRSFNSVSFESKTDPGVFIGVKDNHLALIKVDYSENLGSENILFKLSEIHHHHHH

[6] = biological target: T3, human IL-33 (mm2); assay: cell-based or functional assay
[7] = biological target: T4, cynomolgus monkey IL-33 (cys mut); assay: cell-based or functional assay
[8] = biological target: T3, human IL-33 (mm2); assay: cell-based or functional assay
[9] = biological target: T5, human IL-33 WT (R&D) (human, UniProt O95760 112-270); assay: cell-based or functional assay
T5 sequence: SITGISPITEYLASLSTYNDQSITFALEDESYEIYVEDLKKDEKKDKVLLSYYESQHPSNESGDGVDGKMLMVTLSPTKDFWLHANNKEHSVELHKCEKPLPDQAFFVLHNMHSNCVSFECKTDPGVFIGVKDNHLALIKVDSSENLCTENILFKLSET

[10] = biological target: T4, cynomolgus monkey IL-33 (cys mut); assay: cell-based or functional assay
[11] = biological target: T3, human IL-33 (mm2); assay: cell-based or functional assay
[12] = biological target: T5, human IL-33 WT (R&D); assay: cell-based or functional assay; remark: listed apart in the source
[13] = biological target: T4, cynomolgus monkey IL-33 (cys mut); assay: cell-based or functional assay
[14] = biological target: T3, human IL-33 (mm2); assay: cell-based or functional assay
[15] = biological target: T3, human IL-33 (mm2); assay: cell-based or functional assay
[16] = biological target: T5, human IL-33 WT (R&D); assay: cell-based or functional assay; remark: listed apart in the source
[17] = biological target: T3, human IL-33 (mm2); assay: cell-based or functional assay
[18] = biological target: T5, human IL-33 WT (R&D); assay: cell-based or functional assay; remark: listed apart in the source
[19] = biological target: T4, cynomolgus monkey IL-33 (cys mut); assay: cell-based or functional assay
[20] = biological target: T1, wild-type cynomolgus monkey IL-33; assay: cell-based or functional assay
[21] = biological target: T3, human IL-33 (mm2); assay: cell-based or functional assay
[22] = biological target: T5, human IL-33 WT (R&D); assay: cell-based or functional assay; remark: listed apart in the source
[23] = biological target: T4, cynomolgus monkey IL-33 (cys mut); assay: cell-based or functional assay
[24] = biological target: T1, wild-type cynomolgus monkey IL-33; assay: cell-based or functional assay

B2: IL33-12 (antibody, human IgG1, kappa, V domains shown)
VH: EVQLVESGGGLVQPGGSLRLSCAASGFTFSSYWMYWVRQAPGKGLEWVASINNDGGNTYYLDSVKGRFTISRDNAKNSLYLQMNSLRAEDTAVYYCARGHYYYTSYSLGYWGQGTLVTVSS
VL: DIQMTQSPSSLSASVGDRVTITCKASQNINKHLDWYQQKPGKAPKLLIYFTNNLQTGVPSRFSGSGSGTDFTLTISSLQPEDFATYYCFQYNNGWTFGGGTKVEIKR
IC50, HEK293 ST2 NFkB [4]: 0.144 nM
IC50, HEK293 ST2 NFkB [5]: 3.46 nM
IC50, HEK293 ST2 NFkB [6]: 0.14 nM
IC50, HEK293 ST2 NFkB [7]: 0.943 nM

B3: IL33-117 (antibody, human IgG1, kappa, V domains shown)
VH: B2 VH with N52T, N53P, D54N, N57E, T58D, L61P
VL: B2 VL
IC50, whole blood IFNγ [8]: 0.106 nM
IC50, HEK293 ST2 NFkB WT IL-33 [9]: 0.155 nM
IC50, HEK293 ST2 NFkB cyno IL-33 [10]: 0.052 nM

B4: IL33-45 (antibody, human IgG1, kappa, V domains shown)
VH: B2 VH with N52T, N53P, L61P
VL: B2 VL
IC50, HEK293 ST2 NFkB [6]: 0.325 nM
IC50, HEK293 ST2 NFkB [7]: 0.535 nM

B5: IL33-103 (antibody, human IgG1, kappa, V domains shown)
VH: B2 VH with S50A, N52T, N53P, D54N, N57E, L61P
VL: B2 VL
IC50, HEK293 ST2 NFkB mm2 [8]: 0.028 nM
IC50, whole blood IFNγ [8]: 0.104 nM
IC50, HEK293 ST2 NFkB WT IL-33 [9]: 0.178 nM
IC50, HEK293 ST2 NFkB cyno IL-33 [10]: 0.07 nM

B6: IL33-10 (antibody, human IgG1, kappa)
heavy: not shown
light: DIQMTQSPSSLSASVGDRVTITCKASQNINKHLDWYQQKPGKAPKLLIYFTNNLQTGVPSRFSGSGSGTDFTLTISSLQPEDFATYYCFQYNNGWTFGGGTKVEIKRTVAAPSVFIFPPSDEQLKSGTASVVCLLNNFYPREAKVQWKVDNALQSGNSQESVTEQDSKDSTYSLSSTLTLSKADYEKHKVYACEVTHQGLSSPVTKSFNRGEC
IC50, HEK293 ST2 NFkB [4]: 0.017 nM
IC50, HEK293 ST2 NFkB [5]: 0.132 nM
IC50, HEK293 ST2 NFkB mm2 [8]: 0.031 nM
IC50, whole blood IFNγ [8]: 0.121 nM
IC50, HEK293 ST2 NFkB WT IL-33 [9]: 0.117 nM
IC50, HEK293 ST2 NFkB cyno IL-33 [10]: 0.059 nM

Now from value to binder:

Ratio of cynomolgus monkey KD/human KD [1]: 57.8
Kd [2]: 0.028 nM
koff [2]: 8.07e-05 s⁻¹
kon [2]: 2.89e+06 M⁻¹ s⁻¹
Kd [3]: 1.62 nM
koff [3]: 0.0038 s⁻¹
kon [3]: 2.58e+06 M⁻¹ s⁻¹
B1: IL33-265 Fab (Fab, V domains shown)
VH: EVQLVESGGNLEQPGGSLRLSCTASGFTFSRSAMNWVRRAPGKGLEWVSGISGSGGRTYYADSVKGRFTISRDNSKNTLYLQMNSLSAEDTAAYYCAKDSYTTSWYGGMDVWGHGTTVTVSS
VL: DIQMTQSPSSVSASVGDRVTITCRASQGIFSWLAWYQQKPGKAPKLLIYAASSLQSGVPSRFSGSGSGTDFTLTISSLQPEDFAIYYCQQANSVPITFGQGTRLEIKR
notes: Fab fragment

IC50, HEK293 ST2 NFkB [11]: 0.13 nM
IC50, HEK293 ST2 NFkB [12]: 0.685 nM
IC50, HEK293 ST2 NFkB [13]: 0.162 nM
IC50, IFN-γ production in human PBMC [14]: 0.0011 nM
IC50, human whole blood [15]: 0.013 nM
IC50, human whole blood [16]: 0.451 nM
IC50, HEK293 ST2 NFkB [17]: 0.037 nM
IC50, HEK293 ST2 NFkB (DTT-pretreated IL-33) [18]: 0.25 nM
Cynomolgus monkey:human IC50 ratio: cysteine mutant IL-33 [19]: 1
IC50, HEK293 ST2 NFkB [19]: 0.036 nM
Cynomolgus monkey:human IC50 ratio: wild-type IL-33 [20]: 6.2
IC50, HEK293 ST2 NFkB (DTT-pretreated IL-33) [20]: 1.56 nM
B7: IL33-167LS (antibody, human IgG1, kappa)
heavy: EVQLVESGGGLVQPGGSLRLSCAASGFTFSSYWMYWVRQAPGKGLEWVASITPNAGEDYYPDSVKGRFTISRDNAKNSLYLQMNSLRAEDTAVYYCARGHYYYTSYSLGYWGQGTLVTVSSASTKGPSVFPLAPSSKSTSGGTAALGCLVKDYFPEPVTVSWNSGALTSGVHTFPAVLQSSGLYSLSSVVTVPSSSLGTQTYICNVNHKPSNTKVDKKVEPKSCDKTHTCPPCPAPEAAGAPSVFLFPPKPKDTLMISRTPEVTCVVVDVSHEDPEVKFNWYVDGVEVHNAKTKPREEQYNSTYRVVSVLTVLHQDWLNGKEYKCKVSNKALPAPIEKTISKAKGQPREPQVYTLPPSREEMTKNQVSLTCLVKGFYPSDIAVEWESNGQPENNYKTTPPVLDSDGSFFLYSKLTVDKSRWQQGNVFSCSVLHEALHSHYTQKSLSLSPG
light: B6 light

IC50, HEK293 ST2 NFkB [17]: 0.018 nM
IC50, HEK293 ST2 NFkB (DTT-pretreated IL-33) [18]: 0.061 nM
Cynomolgus monkey:human IC50 ratio: cysteine mutant IL-33 [19]: 32.5
IC50, HEK293 ST2 NFkB [19]: 0.59 nM
Cynomolgus monkey:human IC50 ratio: wild-type IL-33 [20]: 27.1
IC50, HEK293 ST2 NFkB (DTT-pretreated IL-33) [20]: 1.64 nM
IC50, HEK293 ST2 NFkB [21]: 0.007 nM
IC50, HEK293 ST2 NFkB [22]: 0.021 nM
Cynomolgus monkey:human IC50 ratio: cysteine mutant IL-33 [23]: 29.2
IC50, HEK293 ST2 NFkB [23]: 0.213 nM
Cynomolgus monkey:human IC50 ratio: wild-type IL-33 [24]: 104
IC50, HEK293 ST2 NFkB [24]: 2.19 nM
B8: IL33-310 (antibody, human IgG4 S228P, kappa, V domains shown)
VH: EVQLVESGGGLVQPGGSLRLSCAASGFTFSSFSMSWVRQAPGKGLEWVATISGGKTFTDYVDSVKGRFTISRDDSKNTLYLQMNSLRAEDTAVYYCTRANYGNWFFEVWGQGTLVTVSS
VL: EIVLTQSPATLSLSPGERATLSCRASESVAKYGLSLLNWFQQKPGQPPRLLIFAASNRGSGIPARFSGSGSGTDFTLTISSLEPEDFAVYYCQQSKEVPFTFGQGTKVEIKR
